{"source": "patent US20030165997", "about": "“Zinc finger domain libraries” (published 2003)", "assay_in_all_cases": "cell_activity; HEK 293 luciferase", "details_in_all_cases": "tags: HA, NLS", "key": {"ZFP 65 RSNR-RDER1-RSHR": {"target": "ZFP 65 RSNR-RDER1-RSHR (Homo sapiens)", "sequence (chain, as listed by the source)": "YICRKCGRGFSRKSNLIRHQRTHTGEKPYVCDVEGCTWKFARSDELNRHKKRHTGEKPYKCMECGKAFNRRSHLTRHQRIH", "description": "(§1) The in vivo activity assay for a particular three-finger protein was carried out as follows. HEK 293 cells were transfected with four plasmids: 14 ng of a plasmid expressing the particular three-finger protein; 14 ng of the reporter plasmid described above; 70 ng of a plasmid that expresses GAL4-VP 16; and 1.4 ng of a plasmid that expresses Renillar luciferase. The GAL4-VP 16 activates transcription of the minimal synthetic promoter in the reporter so that the repression effected by a particular three-finger protein could be clearly detected and compared to other three-finger proteins. The plasmid expressing Renillar luciferase provides a control of transfection efficiency.\n(§2) Lipofectamine (Gibco-BRL) was used for the transfection procedures. Cells were transfected at 30-50% confluency in wells of a 96 well plate. The cells were incubated for two days prior to harvesting for the luciferase assay. Then luciferase activities were measured using the Dual-Luciferase™ Reporter Assay System (Promega). The observed firefly luciferase activity was normalized using the observed level of Renilla luciferase. The extent of repression or “fold-repression” was calculated by dividing a value for normalized reporter expression in the absence of a zinc finger protein by a value for normalized reporter expression in the presence of the zinc finger protein.\n(§3) A total of 153 three-finger chimeric proteins were constructed from both the “zinc finger protein-first” and the “target site-first” approaches. These proteins were tested using the transient cotransfection assay described in Example 68."}, "ZFP 46 HSNK-QSHT-RSNR": {"target": "ZFP 46 HSNK-QSHT-RSNR (Homo sapiens)", "sequence (chain, as listed by the source)": "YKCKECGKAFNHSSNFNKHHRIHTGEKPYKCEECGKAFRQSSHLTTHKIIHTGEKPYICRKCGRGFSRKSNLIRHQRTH", "description": "as §1, §2, §3"}, "ZFP 36 RSNR-VSSR-RSNR": {"target": "ZFP 36 RSNR-VSSR-RSNR (Homo sapiens)", "sequence (chain, as listed by the source)": "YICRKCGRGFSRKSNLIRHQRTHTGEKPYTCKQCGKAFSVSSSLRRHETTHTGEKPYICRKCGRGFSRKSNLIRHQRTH", "description": "as §1, §2, §3"}, "ZFP 53 QSHR2-RDHT-CSNR1": {"target": "ZFP 53 QSHR2-RDHT-CSNR1 (Homo sapiens)", "sequence (chain, as listed by the source)": "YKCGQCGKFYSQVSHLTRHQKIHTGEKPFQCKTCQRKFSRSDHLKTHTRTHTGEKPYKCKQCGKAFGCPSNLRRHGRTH", "description": "as §1, §2, §3"}, "ZFP 58 VSNV-QSHR2-VSTR": {"target": "ZFP 58 VSNV-QSHR2-VSTR (Homo sapiens)", "sequence (chain, as listed by the source)": "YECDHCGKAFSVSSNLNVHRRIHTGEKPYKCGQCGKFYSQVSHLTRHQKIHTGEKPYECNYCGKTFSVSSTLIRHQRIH", "description": "as §1, §2, §3"}, "ZFP 56 RSNR-VSTR-RSHR": {"target": "ZFP 56 RSNR-VSTR-RSHR (Homo sapiens)", "sequence (chain, as listed by the source)": "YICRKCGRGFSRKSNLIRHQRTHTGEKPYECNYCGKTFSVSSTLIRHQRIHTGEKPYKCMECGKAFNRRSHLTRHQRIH", "description": "as §1, §2, §3"}, "ZFP 57 QSHR2-CSNR1-QSHT": {"target": "ZFP 57 QSHR2-CSNR1-QSHT (Homo sapiens)", "sequence (chain, as listed by the source)": "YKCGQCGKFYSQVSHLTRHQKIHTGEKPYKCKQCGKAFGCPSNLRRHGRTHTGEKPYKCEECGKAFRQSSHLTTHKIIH", "description": "as §1, §2, §3"}, "ZFP 64 VSSR-RSHR-ISNR": {"target": "ZFP 64 VSSR-RSHR-ISNR (Homo sapiens)", "sequence (chain, as listed by the source)": "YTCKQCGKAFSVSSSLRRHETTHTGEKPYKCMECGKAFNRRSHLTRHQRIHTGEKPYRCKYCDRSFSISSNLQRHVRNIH", "description": "as §1, §2, §3"}, "ZFP 55 QSNV2-QSHR2-QSNR3": {"target": "ZFP 55 QSNV2-QSHR2-QSNR3 (Homo sapiens)", "sequence (chain, as listed by the source)": "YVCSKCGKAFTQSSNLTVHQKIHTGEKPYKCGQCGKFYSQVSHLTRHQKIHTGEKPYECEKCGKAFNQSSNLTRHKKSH", "description": "as §1, §2, §3"}, "ZFP 47 RSHR-QSHR2-VSTR": {"target": "ZFP 47 RSHR-QSHR2-VSTR (Homo sapiens)", "sequence (chain, as listed by the source)": "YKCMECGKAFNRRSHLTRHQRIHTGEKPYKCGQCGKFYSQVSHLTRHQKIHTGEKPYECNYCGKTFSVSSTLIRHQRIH", "description": "as §1, §2, §3"}, "ZFP 35 VSSR-QSHT-RSHR": {"target": "ZFP 35 VSSR-QSHT-RSHR (Homo sapiens)", "sequence (chain, as listed by the source)": "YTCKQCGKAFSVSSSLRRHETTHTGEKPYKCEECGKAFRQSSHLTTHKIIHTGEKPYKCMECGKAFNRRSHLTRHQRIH", "description": "as §1, §2, §3"}, "ZFP 48 RDHT-RSHR-RDER1": {"target": "ZFP 48 RDHT-RSHR-RDER1 (Homo sapiens)", "sequence (chain, as listed by the source)": "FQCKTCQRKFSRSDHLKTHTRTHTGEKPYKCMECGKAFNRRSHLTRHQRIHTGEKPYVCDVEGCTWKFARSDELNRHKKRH", "description": "as §1, §2, §3"}, "ZFP 60 QSNR3-QSSR1-QSNV2": {"target": "ZFP 60 QSNR3-QSSR1-QSNV2 (Homo sapiens)", "sequence (chain, as listed by the source)": "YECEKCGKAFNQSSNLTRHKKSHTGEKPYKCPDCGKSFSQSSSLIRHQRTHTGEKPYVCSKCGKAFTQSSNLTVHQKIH", "description": "as §1, §2, §3"}, "ZFP 43 QSSR1-QSNR3-QSHR2": {"target": "ZFP 43 QSSR1-QSNR3-QSHR2 (Homo sapiens)", "sequence (chain, as listed by the source)": "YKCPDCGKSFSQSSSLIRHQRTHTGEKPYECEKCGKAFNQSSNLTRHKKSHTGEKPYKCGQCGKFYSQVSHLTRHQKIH", "description": "as §1, §2, §3"}, "ZFP 62 RDER1-QSSR1-VSTR": {"target": "ZFP 62 RDER1-QSSR1-VSTR (Homo sapiens)", "sequence (chain, as listed by the source)": "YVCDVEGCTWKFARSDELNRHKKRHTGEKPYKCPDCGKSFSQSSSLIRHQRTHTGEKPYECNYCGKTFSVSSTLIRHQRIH", "description": "as §1, §2, §3"}, "ZFP 52 QSHR2-QSHT-RSNR": {"target": "ZFP 52 QSHR2-QSHT-RSNR (Homo sapiens)", "sequence (chain, as listed by the source)": "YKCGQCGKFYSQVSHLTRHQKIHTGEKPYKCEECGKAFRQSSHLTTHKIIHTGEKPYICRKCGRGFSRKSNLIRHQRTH", "description": "as §1, §2, §3"}, "ZFP 51 VSNV-QSNV2-QSHT": {"target": "ZFP 51 VSNV-QSNV2-QSHT (Homo sapiens)", "sequence (chain, as listed by the source)": "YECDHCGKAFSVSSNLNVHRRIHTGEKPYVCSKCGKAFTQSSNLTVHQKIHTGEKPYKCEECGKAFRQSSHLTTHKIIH", "description": "as §1, §2, §3"}, "ZFP 42 RDHT-QSHR2-QSHT": {"target": "ZFP 42 RDHT-QSHR2-QSHT (Homo sapiens)", "sequence (chain, as listed by the source)": "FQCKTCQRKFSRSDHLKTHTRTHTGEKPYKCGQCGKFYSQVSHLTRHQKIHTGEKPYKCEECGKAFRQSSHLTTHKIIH", "description": "as §1, §2, §3"}, "ZFP 50 RSHR-RDER1-QSNV2": {"target": "ZFP 50 RSHR-RDER1-QSNV2 (Homo sapiens)", "sequence (chain, as listed by the source)": "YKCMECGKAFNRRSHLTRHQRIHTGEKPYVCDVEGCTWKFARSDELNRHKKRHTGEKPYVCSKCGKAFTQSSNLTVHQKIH", "description": "as §1, §2, §3"}, "ZFP 45 HSNK-QSNV2-VSSR": {"target": "ZFP 45 HSNK-QSNV2-VSSR (Homo sapiens)", "sequence (chain, as listed by the source)": "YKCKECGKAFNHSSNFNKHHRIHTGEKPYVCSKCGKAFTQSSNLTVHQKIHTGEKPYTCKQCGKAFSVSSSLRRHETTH", "description": "as §1, §2, §3"}, "ZFP 41 QSNR3-RSNR-RSHR": {"target": "ZFP 41 QSNR3-RSNR-RSHR (Homo sapiens)", "sequence (chain, as listed by the source)": "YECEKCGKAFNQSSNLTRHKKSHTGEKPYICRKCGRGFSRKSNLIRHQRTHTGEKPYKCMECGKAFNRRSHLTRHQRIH", "description": "as §1, §2, §3"}, "ZFP 39 VSTR-RSNR-QSHR2": {"target": "ZFP 39 VSTR-RSNR-QSHR2 (Homo sapiens)", "sequence (chain, as listed by the source)": "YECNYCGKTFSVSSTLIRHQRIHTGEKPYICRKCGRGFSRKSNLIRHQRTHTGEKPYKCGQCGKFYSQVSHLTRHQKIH", "description": "as §1, §2, §3"}, "ZFP 49 RSHR-QSNV2-QSHT": {"target": "ZFP 49 RSHR-QSNV2-QSHT (Homo sapiens)", "sequence (chain, as listed by the source)": "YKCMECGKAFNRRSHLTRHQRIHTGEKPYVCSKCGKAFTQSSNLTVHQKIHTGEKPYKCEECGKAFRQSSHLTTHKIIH", "description": "as §1, §2, §3"}}, "data": [{"binder": "target 65 (dsDNA) DNA 1: GGGGCGGAG DNA 2: CTCCGCCCC", "values": [{"measurement": "activity", "setting": "ZFP 65 RSNR-RDER1-RSHR", "value": 1.5, "unit": "fold repression"}]}, {"binder": "target 46 (dsDNA) DNA 1: GAGAGAGAC DNA 2: GTCTCTCTC", "values": [{"measurement": "activity", "setting": "ZFP 46 HSNK-QSHT-RSNR", "value": 1.7, "unit": "fold repression"}]}, {"binder": "target 36 (dsDNA) DNA 1: GAGGTTGAGG DNA 2: CCTCAACCTC", "values": [{"measurement": "activity", "setting": "ZFP 36 RSNR-VSSR-RSNR", "value": 1.8, "unit": "fold repression"}]}, {"binder": "target 53 (dsDNA) DNA 1: GACAGGGGAG DNA 2: CTCCCCTGTC", "values": [{"measurement": "activity", "setting": "ZFP 53 QSHR2-RDHT-CSNR1", "value": 1.6, "unit": "fold repression"}]}, {"binder": "target 58 (dsDNA) DNA 1: GCTGGAAATT DNA 2: AATTTCCAGC", "values": [{"measurement": "activity", "setting": "ZFP 58 VSNV-QSHR2-VSTR", "value": 1.5, "unit": "fold repression"}]}, {"binder": "target 56 (dsDNA) DNA 1: GGGGCTGAGG DNA 2: CCTCAGCCCC", "values": [{"measurement": "activity", "setting": "ZFP 56 RSNR-VSTR-RSHR", "value": 1.5, "unit": "fold repression"}]}, {"binder": "target 57 (dsDNA) DNA 1: TGAGACGGAG DNA 2: CTCCGTCTCA", "values": [{"measurement": "activity", "setting": "ZFP 57 QSHR2-CSNR1-QSHT", "value": 1.5, "unit": "fold repression"}]}, {"binder": "target 64 (dsDNA) DNA 1: GATGGGGTTT DNA 2: AAACCCCATC", "values": [{"measurement": "activity", "setting": "ZFP 64 VSSR-RSHR-ISNR", "value": 1.5, "unit": "fold repression"}]}, {"binder": "target 55 (dsDNA) DNA 1: GAAGGAAAAT DNA 2: ATTTTCCTTC", "values": [{"measurement": "activity", "setting": "ZFP 55 QSNV2-QSHR2-QSNR3", "value": 1.6, "unit": "fold repression"}]}, {"binder": "target 47 (dsDNA) DNA 1: GCTGGAGGGG DNA 2: CCCCTCCAGC", "values": [{"measurement": "activity", "setting": "ZFP 47 RSHR-QSHR2-VSTR", "value": 1.7, "unit": "fold repression"}]}, {"binder": "target 35 (dsDNA) DNA 1: GGGTGAGTG DNA 2: CACTCACCC", "values": [{"measurement": "activity", "setting": "ZFP 35 VSSR-QSHT-RSHR", "value": 1.9, "unit": "fold repression"}]}, {"binder": "target 48 (dsDNA) DNA 1: GCGGGGAGGG DNA 2: CCCTCCCCGC", "values": [{"measurement": "activity", "setting": "ZFP 48 RDHT-RSHR-RDER1", "value": 1.6, "unit": "fold repression"}]}, {"binder": "target 60 (dsDNA) DNA 1: CAAGTAGAAG DNA 2: CTTCTACTTG", "values": [{"measurement": "activity", "setting": "ZFP 60 QSNR3-QSSR1-QSNV2", "value": 1.5, "unit": "fold repression"}]}, {"binder": "target 43 (dsDNA) DNA 1: GGAGAAGTAG DNA 2: CTACTTCTCC", "values": [{"measurement": "activity", "setting": "ZFP 43 QSSR1-QSNR3-QSHR2", "value": 1.7, "unit": "fold repression"}]}, {"binder": "target 62 (dsDNA) DNA 1: GCTGCAGCGT DNA 2: ACGCTGCAGC", "values": [{"measurement": "activity", "setting": "ZFP 62 RDER1-QSSR1-VSTR", "value": 1.5, "unit": "fold repression"}]}, {"binder": "target 52 (dsDNA) DNA 1: GAGTGAGGA DNA 2: TCCTCACTC", "values": [{"measurement": "activity", "setting": "ZFP 52 QSHR2-QSHT-RSNR", "value": 1.6, "unit": "fold repression"}]}, {"binder": "target 51 (dsDNA) DNA 1: AGAAAAAATA DNA 2: TATTTTTTCT", "values": [{"measurement": "activity", "setting": "ZFP 51 VSNV-QSNV2-QSHT", "value": 1.6, "unit": "fold repression"}]}, {"binder": "target 42 (dsDNA) DNA 1: AGAGGAAGGT DNA 2: ACCTTCCTCT", "values": [{"measurement": "activity", "setting": "ZFP 42 RDHT-QSHR2-QSHT", "value": 1.7, "unit": "fold repression"}]}, {"binder": "target 50 (dsDNA) DNA 1: AAAGTGGGGA DNA 2: TCCCCACTTT", "values": [{"measurement": "activity", "setting": "ZFP 50 RSHR-RDER1-QSNV2", "value": 1.6, "unit": "fold repression"}]}, {"binder": "target 45 (dsDNA) DNA 1: GTTCAAGAC DNA 2: GTCTTGAAC", "values": [{"measurement": "activity", "setting": "ZFP 45 HSNK-QSNV2-VSSR", "value": 1.7, "unit": "fold repression"}]}, {"binder": "target 41 (dsDNA) DNA 1: GGGGAGGAAA DNA 2: TTTCCTCCCC", "values": [{"measurement": "activity", "setting": "ZFP 41 QSNR3-RSNR-RSHR", "value": 1.7, "unit": "fold repression"}]}, {"binder": "target 39 (dsDNA) DNA 1: GGAGAGGCTC DNA 2: GAGCCTCTCC", "values": [{"measurement": "activity", "setting": "ZFP 39 VSTR-RSNR-QSHR2", "value": 1.8, "unit": "fold repression"}]}, {"binder": "target 49 (dsDNA) DNA 1: AGAAAAGGG DNA 2: CCCTTTTCT", "values": [{"measurement": "activity", "setting": "ZFP 49 RSHR-QSNV2-QSHT", "value": 1.6, "unit": "fold repression"}]}]}
